Here are results for two molecules from paper PMC3072150 (Biochemistry, 2009).

The target of data set [1] is DnaC protein (hexamer assembled on DnaB) in the binary DnaB–DnaC complex (Escherichia coli, UniProt P0AEF0). Kind of data set: fluorescence titration. It is filed as binding.
Data set [2] has as its target DnaB helicase;DnaC protein (Escherichia coli;Escherichia coli, UniProt P0ACB0;P0AEF0 1-471;1-245, |). Kind of data set: fluorescence titration and sedimentation velocity of cofactor.
A further data set addresses DnaB helicase (Escherichia coli, UniProt P0ACB0 1-471). Kind of data set: fluorescence titration.

DnaB helicase;DnaC protein, sequence (P0ACB0 whole entry, chain 1 of 2): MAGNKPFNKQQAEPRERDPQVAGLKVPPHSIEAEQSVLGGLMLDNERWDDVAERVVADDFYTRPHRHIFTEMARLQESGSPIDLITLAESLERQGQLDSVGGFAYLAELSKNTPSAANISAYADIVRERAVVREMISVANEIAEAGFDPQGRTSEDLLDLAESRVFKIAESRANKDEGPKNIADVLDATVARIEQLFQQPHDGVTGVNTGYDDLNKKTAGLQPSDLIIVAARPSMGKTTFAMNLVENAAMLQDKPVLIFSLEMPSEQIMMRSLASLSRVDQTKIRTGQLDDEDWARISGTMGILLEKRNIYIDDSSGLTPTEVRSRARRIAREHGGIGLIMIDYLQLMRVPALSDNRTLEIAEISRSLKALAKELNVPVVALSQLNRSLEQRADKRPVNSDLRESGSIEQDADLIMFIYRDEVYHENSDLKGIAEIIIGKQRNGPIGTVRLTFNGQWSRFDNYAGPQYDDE
DnaB helicase;DnaC protein, sequence (P0AEF0 whole entry, chain 2 of 2): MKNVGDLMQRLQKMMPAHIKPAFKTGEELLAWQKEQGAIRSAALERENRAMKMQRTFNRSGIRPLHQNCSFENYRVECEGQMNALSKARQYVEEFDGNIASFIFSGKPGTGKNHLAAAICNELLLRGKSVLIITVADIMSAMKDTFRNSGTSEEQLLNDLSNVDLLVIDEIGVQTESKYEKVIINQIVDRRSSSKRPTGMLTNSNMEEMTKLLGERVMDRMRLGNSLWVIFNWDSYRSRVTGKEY
DnaB helicase, sequence (P0ACB0 whole entry): as the sequence (P0ACB0 whole entry, chain 1 of 2) above
DnaC protein (hexamer assembled on DnaB) in the binary DnaB–DnaC complex, sequence (P0AEF0 whole entry): as the sequence (P0AEF0 whole entry, chain 2 of 2) above
DnaC protein (hexamer assembled on DnaB) in the binary DnaB–DnaC complex, sequence (P0ACB0 2-471 partner): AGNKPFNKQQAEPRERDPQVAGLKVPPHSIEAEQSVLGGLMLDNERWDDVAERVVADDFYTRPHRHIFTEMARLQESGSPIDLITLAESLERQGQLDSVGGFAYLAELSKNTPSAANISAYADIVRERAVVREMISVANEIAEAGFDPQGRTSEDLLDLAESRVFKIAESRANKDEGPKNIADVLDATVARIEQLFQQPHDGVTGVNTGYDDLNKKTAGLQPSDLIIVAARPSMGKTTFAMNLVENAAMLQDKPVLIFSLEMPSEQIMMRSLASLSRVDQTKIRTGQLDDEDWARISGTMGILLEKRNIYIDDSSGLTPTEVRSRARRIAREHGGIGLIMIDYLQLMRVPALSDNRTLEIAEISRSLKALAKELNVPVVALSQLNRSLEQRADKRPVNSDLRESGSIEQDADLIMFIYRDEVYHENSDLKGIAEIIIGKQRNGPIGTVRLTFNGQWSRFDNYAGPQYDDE

The Kd is a measure of binding affinity in units of concentration. A higher Kd goes with weaker binding. With `CNc1ccccc1C(=O)O[C@H]1[C@@H](O)[C@H](n2cnc3c(N)ncnc32)O[C@@H]1CO[P@@](=O)(O)O[P@](=O)(O)OP(=O)(O)O` [MANT-ATP, 3′-O-(N-methylanthraniloyl)adenosine 5′-triphosphate], the Kd in data set [1] was determined as 4.17 µM.

With AAAAAAAAAAAAAAAAAAAA (ssDNA) [dA(pdA)19 (ssDNA 20-mer)], the binding result (in data set [2]; with DnaB helicase) was “binds” each time.
